Measurements reported in US20240382610A1 (TALLAC THERAPEUTICS, published 2024).

B1: TNT-198 (antibody, mouse IgG2a, kappa)
heavy: EVQLVQSGAEVKKPGSSVKVSCKASGGTFSSYAISWVRQAPGQGLEWMGWINPNSGGTNYAQKFQGRVTMTRDTSTSTAYMELSSLRSEDTAVYYCATGYYGDLYYFDYWGQGTLVTVSSAKTTAPSVYPLAPVCGDTTGSSVTLGCLVKGYFPEPVTLTWNSGSLSSGVHTFPAVLQSDLYTLSSSVTVTSSTWPSQSITCNVAHPASSTKVDKKIEPRGPTIKPCPPCKCPAPNLLGGPSVFIFPPKIKDVLMISLSPIVTCVVVDVSEDDPDVQISWFVNNVEVHTAQTQTHREDYNSTLRVVSALPIQHQDWMSGKEFKCKVNNKDLPAPIERTISKPKGSVRAPQVYVLPPPEEEMTKKQVTLTCMVTDFMPEDIYVEWTNNGKTELNYKNTEPVLDSDGSYFMYSKLRVEKKNWVERNSYSCSVVHEGLHNHHTTKSFSRTPGRPQGFGPP
light: DIVMTQSPSSLSASVGDRVTITCRASQGISNYLAWYQQKPGKVPKLLIYAASTLQSGVPSRFSGSGSGTEFTLAISSLQPEDLATYYCQQLNSHPITFGQGTRLEIKRADAAPTVSIFPPSSEQLTSGGASVVCFLNNFYPKDINVKWKIDGSERQNGVLNSWTDQDSKDSTYSMSSTLTLTKDEYERHNSYTCEATHKTSTSPIVKSFNRNEC
B2: TNT-188 (antibody, mouse IgG2a, kappa)
heavy: EVQLVQSGAEVKKPGSSVKVSCKASGYTFTGYYMHWVRQAPGQGLEWMGWINPNSGGTNYAQKFQGRVTMTRDTSISTAYMELRSLRSDDTAVYYCARGSALHFFGVFDYWGQGTLVTVSSAKTTAPSVYPLAPVCGDTTGSSVTLGCLVKGYFPEPVTLTWNSGSLSSGVHTFPAVLQSDLYTLSSSVTVTSSTWPSQSITCNVAHPASSTKVDKKIEPRGPTIKPCPPCKCPAPNLLGGPSVFIFPPKIKDVLMISLSPIVTCVVVDVSEDDPDVQISWFVNNVEVHTAQTQTHREDYNSTLRVVSALPIQHQDWMSGKEFKCKVNNKDLPAPIERTISKPKGSVRAPQVYVLPPPEEEMTKKQVTLTCMVTDFMPEDIYVEWTNNGKTELNYKNTEPVLDSDGSYFMYSKLRVEKKNWVERNSYSCSVVHEGLHNHHTTKSFSRTPGRPQGFGPP
light: not shown

Assays:
[1] = biological target: T1, Human nectin-4 ECD-6His (TNT-175) (human, UniProt Q96NY8 32-349); test: competition ELISA; nectin-4 ECD premixed with TNT202, captured by the coat antibody; % of signal without premix antibody
T1 construct: the entry holds the extracellular domain with the C-terminal 6His tag
T1 sequence: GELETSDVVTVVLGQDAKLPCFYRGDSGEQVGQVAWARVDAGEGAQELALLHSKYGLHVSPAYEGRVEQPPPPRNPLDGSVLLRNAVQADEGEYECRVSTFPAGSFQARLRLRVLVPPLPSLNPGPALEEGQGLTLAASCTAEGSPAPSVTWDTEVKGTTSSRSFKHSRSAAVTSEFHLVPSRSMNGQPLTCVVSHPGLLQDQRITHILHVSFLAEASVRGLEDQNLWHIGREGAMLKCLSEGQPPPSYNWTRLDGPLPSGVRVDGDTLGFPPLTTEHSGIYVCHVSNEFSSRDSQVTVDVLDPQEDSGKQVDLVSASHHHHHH
How it was run: (§1)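 Plates coated overnight at 4° C with goat anti-mouse IgG (1 mg/mL), premix of nectin-4 ECD and competing antibody added for one hour. Bound ECD detected with rabbit anti-6×His HRP (1:4,000, 1 h, room temperature) and ABTS for 20 minutes. O.D. background-normalized, expressed as percent of no-premix control at lowest nectin-4 dilution.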

[2] = biological target: T1, Human nectin-4 ECD-6His (TNT-175); test: competition ELISA; nectin-4 ECD premixed with TNT205, captured by the coat antibody; % of signal without premix antibody
How it was run: as §1

[3] = biological target: T1, Human nectin-4 ECD-6His (TNT-175); test: competition ELISA; nectin-4 ECD premixed with TNT203, captured by the coat antibody; % of signal without premix antibody
How it was run: as §1

[4] = biological target: T1, Human nectin-4 ECD-6His (TNT-175); test: competition ELISA; nectin-4 ECD premixed with TNT209, captured by the coat antibody; % of signal without premix antibody
How it was run: as §1

[5] = biological target: T1, Human nectin-4 ECD-6His (TNT-175); test: competition ELISA; nectin-4 ECD premixed with TNT211, captured by the coat antibody; % of signal without premix antibody
How it was run: as §1

[6] = biological target: T1, Human nectin-4 ECD-6His (TNT-175); test: competition ELISA; nectin-4 ECD premixed with TNT207, captured by the coat antibody; % of signal without premix antibody
How it was run: as §1

[7] = biological target: T1, Human nectin-4 ECD-6His (TNT-175); test: competition ELISA; nectin-4 ECD premixed with TNT201, captured by the coat antibody; % of signal without premix antibody
How it was run: as §1

[8] = biological target: T1, Human nectin-4 ECD-6His (TNT-175); test: SPR ProteOn, mAb on protein A
Protocol: Initial testing of binding of nectin-4 antibodies to nectin-4. […] Biotinylated protein A (15 μg/mL) was immobilized to the surface of an NLC chip. 30 nM of purified mAb supernatant was diluted in PBS-T and captured over the protein A surface. Serial dilutions of human nectin-4 were injected over the mAb-coated chips, and binding kinetics were determined. Chips were regenerated using 4:1 v/v of IgG elution butter/4M NaCl.

[9] = biological target: T1, Human nectin-4 ECD-6His (TNT-175); test: competition ELISA; nectin-4 ECD premixed with TNT212, captured by the coat antibody; % of signal without premix antibody
How it was run: as §1

[10] = biological target: T1, Human nectin-4 ECD-6His (TNT-175); test: competition ELISA; nectin-4 ECD premixed with TNT206, captured by the coat antibody; % of signal without premix antibody
How it was run: as §1

[11] = biological target: T1, Human nectin-4 ECD-6His (TNT-175); test: competition ELISA; nectin-4 ECD premixed with TNT204, captured by the coat antibody; % of signal without premix antibody
How it was run: as §1

[12] = biological target: T2, human nectin-4 on cells (human, UniProt Q96NY8 32-510); test: flow cytometry MFI, MNK74 (nectin-4 positive) over AGS (negative)
T2 construct: whole, on cells; also called PVRL4
T2 sequence (looked up): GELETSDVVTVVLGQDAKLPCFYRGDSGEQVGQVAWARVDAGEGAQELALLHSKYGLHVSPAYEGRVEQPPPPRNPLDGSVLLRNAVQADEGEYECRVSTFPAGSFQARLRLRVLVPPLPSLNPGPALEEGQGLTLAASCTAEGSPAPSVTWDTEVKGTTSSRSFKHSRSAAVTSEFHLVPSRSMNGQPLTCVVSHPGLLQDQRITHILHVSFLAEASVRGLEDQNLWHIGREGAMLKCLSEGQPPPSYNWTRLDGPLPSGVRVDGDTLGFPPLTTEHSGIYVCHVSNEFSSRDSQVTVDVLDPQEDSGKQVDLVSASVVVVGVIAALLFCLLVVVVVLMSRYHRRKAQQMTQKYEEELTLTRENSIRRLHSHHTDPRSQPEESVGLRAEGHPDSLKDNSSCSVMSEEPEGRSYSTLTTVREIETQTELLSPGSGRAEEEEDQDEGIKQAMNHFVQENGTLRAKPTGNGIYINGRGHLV

[13] = biological target: T1, Human nectin-4 ECD-6His (TNT-175); test: competition ELISA; nectin-4 ECD premixed with TNT210, captured by the coat antibody; % of signal without premix antibody
How it was run: as §1

[14] = biological target: T1, Human nectin-4 ECD-6His (TNT-175); test: competition ELISA; nectin-4 ECD premixed with TNT208, captured by the coat antibody; % of signal without premix antibody
How it was run: as §1

Row | Binder | % of Positive [1] | % of Positive [2] | % of Positive [3] | % of Positive [4] | % of Positive [5] | % of Positive [6] | % of Positive [7] | Kd [8] | koff [8] | kon [8] | % of Positive [9] | % of Positive [10] | % of Positive [11] | Fold-change of binding to MNK74 compared to control AGS [12] | % of Positive [13] | % of Positive [14]
1 | B1 | 2.5% | 56.9% | 29.8% | 26% | 19.5% | 1% | 0.9% | 20.2 nM | 0.00138 s⁻¹ | 68400 M⁻¹ s⁻¹ | 1.9% | 5.4% | 2.2% | 5.9 fold | 0.8% | 2.1%
2 | B2 | 12.8% | 52.5% | 40% | 43.7% | 35.4% | 7.5% | 2.7% | 7.03 nM | 0.00153 s⁻¹ | 217000 M⁻¹ s⁻¹ | 10.1% | 20% | 9.2% | 4.3 fold | 8% | 12.7%
